Results from IntAct's records for PubMed 21362419.

B1: Tyrosine-protein kinase JAK2 (Mus musculus), Q62120 (parent)
chain: MGMACLTMTEMEATSTSPVHQNGDIPGSANSVKQIEPVLQVYLYHSLGQAEGEYLKFPSGEYVAEEICVAASKACGITPVYHNMFALMSETERIWYPPNHVFHIDESTRHDILYRIRFYFPHWYCSGSSRTYRYGVSRGAEAPLLDDFVMSYLFAQWRHDFVHGWIKVPVTHETQEECLGMAVLDMMRIAKEKDQTPLAVYNSVSYKTFLPKCVRAKIQDYHILTRKRIRYRFRRFIQQFSQCKATARNLKLKYLINLETLQSAFYTEQFEVKESARGPSGEEIFATIIITGNGGIQWSRGKHKESETLTEQDVQLYCDFPDIIDVSIKQANQECSNESRIVTVHKQDGKVLEIELSSLKEALSFVSLIDGYYRLTADAHHYLCKEVAPPAVLENIHSNCHGPISMDFAISKLKKAGNQTGLYVLRCSPKDFNKYFLTFAVERENVIEYKHCLITKNENGEYNLSGTKRNFSNLKDLLNCYQMETVRSDSIIFQFTKCCPPKPKDKSNLLVFRTNGISDVQISPTLQRHNNVNQMVFHKIRNEDLIFNESLGQGTFTKIFKGVRREVGDYGQLHKTEVLLKVLDKAHRNYSESFFEAASMMSQLSHKHLVLNYGVCVCGEENILVQEFVKFGSLDTYLKKNKNSINILWKLGVAKQLAWAMHFLEEKSLIHGNVCAKNILLIREEDRRTGNPPFIKLSDPGISITVLPKDILQERIPWVPPECIENPKNLNLATDKWSFGTTLWEICSGGDKPLSALDSQRKLQFYEDKHQLPAPKWTELANLINNCMDYEPDFRPAFRAVIRDLNSLFTPDYELLTENDMLPNMRIGALGFSGAFEDRDPTQFEERHLKFLQQLGKGNFGSVEMCRYDPLQDNTGEVVAVKKLQHSTEEHLRDFEREIEILKSLQHDNIVKYKGVCYSAGRRNLRLIMEYLPYGSLRDYLQKHKERIDHKKLLQYTSQICKGMEYLGTKRYIHRDLATRNILVENENRVKIGDFGLTKVLPQDKEYYKVKEPGESPIFWYAPESLTESKFSVASDVWSFGVVLYELFTYIEKSKSPPVEFMRMIGNDKQGQMIVFHLIELLKSNGRLPRPEGCPDEIYVIMTECWNNNVSQRPSFRDLSLRVDQIRDSIAA
partner: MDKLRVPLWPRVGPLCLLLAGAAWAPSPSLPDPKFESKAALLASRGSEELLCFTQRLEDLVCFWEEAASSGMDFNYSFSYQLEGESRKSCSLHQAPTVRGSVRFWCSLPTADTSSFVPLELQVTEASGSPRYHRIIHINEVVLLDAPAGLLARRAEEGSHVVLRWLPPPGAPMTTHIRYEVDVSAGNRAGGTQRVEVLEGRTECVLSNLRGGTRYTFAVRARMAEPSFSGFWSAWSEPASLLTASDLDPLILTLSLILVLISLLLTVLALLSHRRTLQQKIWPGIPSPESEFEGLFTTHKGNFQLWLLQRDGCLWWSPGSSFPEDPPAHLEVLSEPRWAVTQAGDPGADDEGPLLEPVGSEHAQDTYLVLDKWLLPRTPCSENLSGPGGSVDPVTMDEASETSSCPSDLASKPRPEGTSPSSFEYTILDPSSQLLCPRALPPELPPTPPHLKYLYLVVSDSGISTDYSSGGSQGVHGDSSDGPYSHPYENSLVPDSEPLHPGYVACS

Variants of: B1
Conditions: with epor_mouse Epor
In the case of T875N, the “effect of a mutation on the interaction” value is reported as “increasing interaction”.

Variants of: B1
Conditions: with epor_mouse Epor
Remark: another data set of the same source
With K539L the “effect of a mutation on the interaction” value was “increasing interaction”.

Variants of: B1
Conditions: with epor_mouse Epor
Remark: another data set of the same source
In the case of V617F, the “effect of a mutation on the interaction” value is reported as “increasing interaction”.
